Experiment: yeast display, Sf9 membrane polyspecificity reagent, FACS + sequencing; frameworks hold sequencing errors
Summary of the method: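 After 36–48 hours of galactose induction, yeast (Saccharomyces cerevisiae BJ5465) displaying a synthetic nanobody library were stained at 4 °C for 1 hour with 10% biotinylated, detergent-solubilized Sf9 membrane reagent. Streptavidin microbeads enriched the stained cells before FACS sorting into low and high (top ~1%) gates on anti-HA and streptavidin fluorescence. Each clone's polyreactivity label reflects its gate of origin.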

| Sequence | polyreactivity (PSR sort gate) |
| --- | --- |
| QVQLVESGGGLVQAGGSLRLSCASSGTIFSWYTMGRYRQAPGKERELVARITTSGGTTRYADSVKGRFTISRDNAKNTVYFQINSLKPEDTAVYYCAADRSPYWRGYFRYNYWGQGSQVTVSS | high polyreactivity |
| QVQLEESGGGLVQAGGSLRLSCAASGSTFYSNAIGWYRQAPGKEREFVAAISLRGGSTYYADSVKGRFTISRDNAKNTVYLQMNSLKPEDTAVYYCAVDYYRRNGLKVYYRYDYWGQGTQVTVSS | high polyreactivity |
| QVQLVESGGGLVQAGGSLRLSCAASGSTFWFSAMGWYRQEPGKERELVAAITWSGGRTYYADSVKGRFTISRDNAKNTVYLQLNSLKPEDTAVYYCNKAYPQFGPLDDWGQGTQVTVSS | low polyreactivity |
| QVQLVESGVCLVQAGGSLRLSCAASGSTITYNAMGWYRQAPGKERELVASISSGTTTYYADSVKGRFTISRDNAKNTVYLQMNSLHTEDTAVYYCAVDSCSRVQGWLAHNYDYWGQGTQVTVSS | low polyreactivity |
| QVQLVESGGGLVQAGGSLRLSCAASGYTFGFYALGWYRQAPGKERELVAAITVSGGSTYYADSVKGRFTISRDNAKNTVYLQMNSLKPEDTAVYYCAAEVWFYSTFLYDYWGQGTQVTVSS | high polyreactivity |
| QVQLVESGGGLVQAGGSLRLSCAASGSTFVLYAMGWDRQAPGKERELVAAISGGATTTYADSVKGRFTISRDNAKNTVYLQMNSLKPEDTAVYSCAADFSTFVVSGAAMDYWGQGTQVTVSS | low polyreactivity |
| QVQLVESGGGLVQAGGSLRLSCAASGSIYYYAMGWYRQAPGKERELVAVITSRGGSTNYADSVKGRFTISRDNAKNTVYLQMNSLKPQDTAVYYCNADYYRYYSITYGGDYWGQGTQVTVSS | high polyreactivity |
| QVHLVESGGGLVQAGGSLRLSFAADGSSFVRYAMGWYRQAPGKEREFVAAISRTGGSTYYADSVKGRFTLSRDNAKNTVYLQMNSLKQEVTAVFYCDARYIRGYDYWGQGTKVTVSS | high polyreactivity |
| QVQLVESGGGLVQAGGSLRISCAASGFIYTRYTMGWYRQAPGKERELVAVINSSGGSTYYADSVKGRFTISRDNAKNTVYLQMNSLKPEDTAVYYCNALSRYRIWSYGYWGPGTQVTVSS | high polyreactivity |
| QVQLEDSGGGLVQAGGSLRLSCAASGRIFGYNAMGWYRQAPGKERELVAAITTSGGSTYYADSVKGRFTISRDNAKNTVYLQMNSLKPEDTAVYYCARDSLQVFYPYASDDYWGQGTQVTVSS | low polyreactivity |
| QVQLVESGGGLVQAGGSLRLSCAASGRTFGYNAMGWYRQAPGKVRELVAAITSGGSTYYADSVKGRFTISRDNAKNTVYLQMNSLKPEDTAVYYCNARYPGFWSGWEEYWGQGTQVTVSS | high polyreactivity |
| QVQLVESGGGLVQAGGSLRLSCAASGSTFYKNTMGWYRQAPGKERELVATISSGDSTYADSVKGRFTISRDNAKNTVYLQMNSLKPEDTAVYYCAAASDLPGTGGYDYWGPGTQVTVSS | low polyreactivity |
| QVQLVESGGGLVQAGGSLRLSCAASGGILDTSAMGWYRQAPGKERELVAAITSGGHTNYADSVKGRFTISRDNAKNTVYLQMNSLKPEDTAVYYCNVVTWYYVFRPWEYDYWGHGTQVTVSS | low polyreactivity |
| QVQLVESGGGLVQAGGSLRLSCAASGNTFYRNAMGWYRQAPGKDRELVAAIDYGGSTTYYADSVKGRFTISRDNSKNTVYLQMNSLKPEDTAVYYCAAREYRIGHVQPMDYWGQGTQVTVSS | high polyreactivity |
| QVQLVESGGGLVQAGGSLRLSCASSGITFAKNAMGRYRQAPGKERELVAVITNTNYADSVKGRFTISRDNAKNTVYLQMNSLKPEDTAVYYCAVDGYGWYFARSWLRYYYWGQGTQVTVSS | low polyreactivity |
| QVQLVESGGGLVQAAGSLRLSCAASGSTFAANAMGWYRQAPGKERELVAAITWTGGSTYYADSVKGRFTISRDNAKNTVYLQMNSLKPEDTAVYYCARRSYGRYYYRYRAYDYWGQGTQVTVSS | high polyreactivity |

| Sequence | polyreactivity (PSR sort gate) |
| --- | --- |
| QVQLVESGGGLVQAGGSLRLSCAASGRIFYYYAMGWYRQAPGKEREFVADISARGGSTYYADSVKGRFTISRDNAKKTVYLEMNSLKPEDTAVYYCAATTGLYTRYGYWGQGTQVTVSS | high polyreactivity |
| QVQLVESGGGLVQAGGSLRLSCAASGFIFQVYAMGWYRQAPGKERELVAAISDDGSTNYADSVKGRFTISRDNAKYTVYLQMNSLKPEDTAVYYCAKESWGRLYYRYDYWGQGTQVTVSS | low polyreactivity |
| QVQLVESGGGLVQAGGSLRLSCAASGSIFKRNVMGWYRQAPGKERELVAAITWSGASTYYADSVKGRFTISRDNAKITVYLQMNSLKPEDTAVYYCAARGPSRRRDGSDYWGQGTQVTVSS | high polyreactivity |
| QVQLVESGGGLVQAGGSLRLSCAAYGNAMGWYRQAPGKERELVASINRSGGRTYYADSVKGRFTISRDNAKNTVYLQMNSLKPEDTAVYYCAARPHYDSDYWGQGTQVTVSS | low polyreactivity |
| QVQLVESGGGLVQAGGSLRLSCAASGSIFGENAMGRYRQAPGKERELVAAITSGGSTDYADSVKGRFTISRDNAKNTVYLQMNSLKPEDTAVYYCAASGRVGPGYWYDSWGQGTQVTVSS | low polyreactivity |
| QVQLVESGGGLLQAGGSLRLSCAASGFTIYRYAMGWYRQAPGKERELVGAITGGGGSTYYADSVKGRFTISRDNAKNTVYLQMNSLKPEDTAVYYCAVDVYHKGQYRWSYVYWGQGTQVTVSS | low polyreactivity |
| QVQLVESGGGLVQAGGSLRLSCAASGRTFLLYAMGWYRQAPGKERELVAAITRGGRTNYADSVKGRFTISRDNAKNTVYLQMNSLKPEDTAVYYCAARYVERHTDYYYWGQGTQVTVSS | low polyreactivity |
| QVQLVESGGGLVQAGGSLRLSCAASGITFDHYAMGWYRPAPGKERELVATIRGSGTSTYYADSVKGRFTISRDNAKNTVYLQMHSLKPEDTAVYYCAARGRYRQFNYWGQGTQVTVSS | high polyreactivity |
| QVQLVESGGGLVQAGGSLRLSCAASGLIFRKNAMGWYRQAPGKERELVAAISSSDSSTYADSVKGRFTISRDNAKNTVYLQMYSLKPEDTAVYYCAAASYNWLDWVTREYWGQGTQVTVSS | low polyreactivity |
| QVQLVESGGGLVQAGGSLRLSCAASGSTFYENTMGWYRQAPGKERELVAAISFRGGSTYYADSVKGRFTISRDNAKNTVYLQMNSLKPEETAVYYCAKEYYTVRLYDYWGQGTQVTVSS | low polyreactivity |
| QVQLVESGGGLVQAGGSLRLSCAASGFIFRFYAMGWYRQAPGKERELVAGISSSGGSTYYADSVKGRFTISRDNAKNTVYLQMNSLKPEDTAVYYCNAKRSDQSSKTFNYWGQGTQVTVSS | low polyreactivity |
| QVQLVESGGGLVHAGGSLRLSSAASGGIFKYNPMGWYRQAPGTERELVARISFGGSRTYYADSVKGRFTISRDNAKNTCYVQMNSLKPADTAVYYCARRVTGTLYYTGYDYWGQGTQVTVSS | high polyreactivity |
| QVQLVETGGGLVQAGGSLRLSCAPSGSTFYYYVMGWYRPPPGNERELVAAINSGGSTYYADSVKGRFTISRDNAKNTVYLQMNSLKPEDTAVYYCAKSWSYWYQYFYWGQGTQVTVSS | low polyreactivity |
| QVQLVESGGGLVQAGGSLRLSCAASGRIFTTYAMGWYSRGPGKERELVAAISQNGGSTYYADSVKGRFTISRDNAKNTVYLQMNSLKPEDTAVYYCNAGPAGYYDYDYRGQGTQVTVSS | low polyreactivity |
| QVQLVESGGGLVQAGGSLRLSCAASGSTFPYNAMGWYSPAPGKERELVAAITSAGGTNYADSVKGRFTISRDNATNTVYLQMNSLKPEDTAVYYCAADGSGYYDWYYYWGQGTQVTVSS | low polyreactivity |
| QVQLVESGGGLVQAGGSLRLSCAASGIIFRRYAMGWYRQAPGKERELVAAITGSGGSTYYADSVKGRFTISRDNAKNTVYLQMNSLKPEDTAVYYCAAQSLLRFASSRYNSWGQGTQVTVSS | high polyreactivity |

— the nanobody polyreactivity screen of Harvey et al. (2022)
